Values of other authors in article PMC5742237.
pKd: −log10 of the molar value. Read-outs that look alike come from different tables or passages of the source.

Assays:
[1] = biological target: Transhydrogenase domain I dimer domain I (Rhodospirillum rubrum) (UniProt Q2RSB2)
[2] = biological target: Transhydrogenase domain I dimer domain I (Rhodospirillum rubrum) (UniProt Q2RSB2); remark: listed apart in the source

Sequence of UniProt Q2RSB2 (Q2RSB2 whole entry, the tested form may be a part): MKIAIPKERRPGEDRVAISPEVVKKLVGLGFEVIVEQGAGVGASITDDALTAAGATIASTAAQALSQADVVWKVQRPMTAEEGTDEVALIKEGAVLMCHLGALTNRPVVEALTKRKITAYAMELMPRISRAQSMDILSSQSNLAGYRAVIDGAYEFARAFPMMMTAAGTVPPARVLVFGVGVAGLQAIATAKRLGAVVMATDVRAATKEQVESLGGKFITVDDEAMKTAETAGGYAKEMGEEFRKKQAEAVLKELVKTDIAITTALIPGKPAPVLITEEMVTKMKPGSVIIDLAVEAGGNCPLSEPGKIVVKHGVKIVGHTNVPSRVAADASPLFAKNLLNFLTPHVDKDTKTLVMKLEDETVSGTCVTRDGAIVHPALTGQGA

Substance	pKd [1]	pKd [2]
Transhydrogenase domain III (second) domain III (from UniProt Q2RSB4)	5.00	
Transhydrogenase domain III domain III (from UniProt Q2RSB4)		> 7.22
